The text below walks through data of patent US6326464.

What all share (assay): cell_activity
Details in all cases: H358 cells, 50 ng plasmid

Series [1] relates to V-325 (VP16-75-325-lz) (Homo sapiens / herpes simplex virus chimera).
Series [2] concerns V-336 (VP16-75-336-lz) (Homo sapiens / herpes simplex virus chimera).
In series [3] the target is wild-type p53 (Homo sapiens) (UniProt P04637).
Sequence of wild-type p53 (Homo sapiens) (P04637 whole entry): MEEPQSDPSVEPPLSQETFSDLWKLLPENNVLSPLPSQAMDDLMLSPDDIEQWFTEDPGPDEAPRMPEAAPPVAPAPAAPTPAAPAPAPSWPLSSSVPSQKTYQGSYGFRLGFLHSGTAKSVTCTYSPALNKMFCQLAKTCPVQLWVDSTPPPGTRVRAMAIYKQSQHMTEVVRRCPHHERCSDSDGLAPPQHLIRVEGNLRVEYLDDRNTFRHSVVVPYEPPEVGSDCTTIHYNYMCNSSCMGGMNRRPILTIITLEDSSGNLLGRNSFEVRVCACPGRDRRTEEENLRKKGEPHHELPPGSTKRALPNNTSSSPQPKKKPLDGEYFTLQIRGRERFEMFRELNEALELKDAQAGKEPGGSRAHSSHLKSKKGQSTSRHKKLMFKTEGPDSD

For p53RE consensus CAT reporter, the activity (relative CAT activity (vector=1)) in series [1] was determined as 25; in series [2] it was 16; in series [3], 6.
